Experimental data reported in US20230067960A1 (VONSUN PHARMATECH, published 2023).
Non-standard residues stand in square brackets, D forms with d. No end group written: not given here. R1 = not defined here; R2 = not defined here; Aib = CC(C)(N)C(=O)O

Key:
Experiment in all cases: cell-based or functional assay
[1] = target: T1, gastric inhibitory peptide receptor
T1 sequence (P48546 whole entry, species assumed, looked up): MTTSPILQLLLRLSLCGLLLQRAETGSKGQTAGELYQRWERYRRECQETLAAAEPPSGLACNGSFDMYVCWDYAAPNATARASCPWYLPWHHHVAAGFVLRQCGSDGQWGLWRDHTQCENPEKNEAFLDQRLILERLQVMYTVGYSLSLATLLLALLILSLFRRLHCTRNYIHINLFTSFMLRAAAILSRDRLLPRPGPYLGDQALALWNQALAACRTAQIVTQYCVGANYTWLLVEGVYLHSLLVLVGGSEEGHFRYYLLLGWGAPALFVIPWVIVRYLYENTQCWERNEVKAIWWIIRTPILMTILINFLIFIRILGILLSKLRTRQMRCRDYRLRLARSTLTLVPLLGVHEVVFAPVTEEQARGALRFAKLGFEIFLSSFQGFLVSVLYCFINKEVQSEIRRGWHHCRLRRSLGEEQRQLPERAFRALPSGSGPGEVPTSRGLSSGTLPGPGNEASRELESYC

glucagon receptor = target: glucagon receptor
[2] = target: glucagon-like peptide-1 receptor

H[Aib]QGTFTSDLSRYLEKEAVRLFIEWLIDGGPSSGAPPPS (ends and bridges not checked) [triple agonist peptide of SEQ ID NO: 10]
In vitro activity relative to native polypeptide (%), relative to GIP (cAMP HTRF, from EC50) [1]: 94.7%
In vitro activity relative to native polypeptide (%), relative to GCG (cAMP HTRF, from EC50) (glucagon receptor): 21.8%
In vitro activity relative to native polypeptide (%), relative to GLP-1 (cAMP HTRF, from EC50) [2]: 71.6%

H[Aib]QGTFTSDLSRAMEK(R2)IAVRLFIEWLIEGGPSSGAPPPS-NH2 (reading uncertain) [triple agonist peptide of SEQ ID NO: 13, chemically modified with R2 side chain]
In vitro activity relative to native polypeptide (%), relative to GIP (cAMP HTRF, from EC50) [1]: 9.83%
In vitro activity relative to native polypeptide (%), relative to GCG (cAMP HTRF, from EC50) (glucagon receptor): 16.1%
In vitro activity relative to native polypeptide (%), relative to GLP-1 (cAMP HTRF, from EC50) [2]: 217%

H[Aib]QGTFTSDLSAAMEKIAVRLFIEWLREGGPSSGAPPPS (ends and bridges not checked) [triple agonist peptide of SEQ ID NO: 5]
In vitro activity relative to native polypeptide (%), relative to GIP (cAMP HTRF, from EC50) [1]: 1.99%
In vitro activity relative to native polypeptide (%), relative to GCG (cAMP HTRF, from EC50) (glucagon receptor): 0.72%
In vitro activity relative to native polypeptide (%), relative to GLP-1 (cAMP HTRF, from EC50) [2]: 38.4%

H[Aib]QGTFTSDLSRAMEKIAVRLFIEWLREGGPSSGAPPPS (ends and bridges not checked) [triple agonist peptide of SEQ ID NO: 1]
In vitro activity relative to native polypeptide (%), relative to GIP (cAMP HTRF, from EC50) [1]: 3.99%
In vitro activity relative to native polypeptide (%), relative to GCG (cAMP HTRF, from EC50) (glucagon receptor): 1.33%
In vitro activity relative to native polypeptide (%), relative to GLP-1 (cAMP HTRF, from EC50) [2]: 64.7%

H[Aib]QGTFTSDLSRAMEKIAVRLFIEWLIEGGPSSGAPPPS (ends and bridges not checked) [triple agonist peptide of SEQ ID NO: 6]
In vitro activity relative to native polypeptide (%), relative to GIP (cAMP HTRF, from EC50) [1]: 3.27%
In vitro activity relative to native polypeptide (%), relative to GCG (cAMP HTRF, from EC50) (glucagon receptor): 0.89%
In vitro activity relative to native polypeptide (%), relative to GLP-1 (cAMP HTRF, from EC50) [2]: 116%

H[Aib]QGTFTSDLSRAMEKEAVRLFIEWLIDGGPSSGAPPPS (ends and bridges not checked) [triple agonist peptide of SEQ ID NO: 4]
In vitro activity relative to native polypeptide (%), relative to GIP (cAMP HTRF, from EC50) [1]: 7.37%
In vitro activity relative to native polypeptide (%), relative to GCG (cAMP HTRF, from EC50) (glucagon receptor): 2.17%
In vitro activity relative to native polypeptide (%), relative to GLP-1 (cAMP HTRF, from EC50) [2]: 71.4%

H[Aib]QGTFTSDLSRAMEKEAVRLFIEWLREGGPSSGAPPPS (ends and bridges not checked) [triple agonist peptide of SEQ ID NO: 2]
In vitro activity relative to native polypeptide (%), relative to GIP (cAMP HTRF, from EC50) [1]: 34%
In vitro activity relative to native polypeptide (%), relative to GCG (cAMP HTRF, from EC50) (glucagon receptor): 25.1%
In vitro activity relative to native polypeptide (%), relative to GLP-1 (cAMP HTRF, from EC50) [2]: 104%

H[Aib]QGTFTSDLSRALEKIAARLFIEWLIEGGPSSGAPPPS (ends and bridges not checked) [triple agonist peptide of SEQ ID NO: 7]
In vitro activity relative to native polypeptide (%), relative to GIP (cAMP HTRF, from EC50) [1]: 5.74%
In vitro activity relative to native polypeptide (%), relative to GCG (cAMP HTRF, from EC50) (glucagon receptor): 18.3%
In vitro activity relative to native polypeptide (%), relative to GLP-1 (cAMP HTRF, from EC50) [2]: 47.5%

H[Aib]QGTFTSDLSRAMEKEAVRLFIEWLIEGGPSSGAPPPS (ends and bridges not checked) [triple agonist peptide of SEQ ID NO: 3]
In vitro activity relative to native polypeptide (%), relative to GIP (cAMP HTRF, from EC50) [1]: 12.1%
In vitro activity relative to native polypeptide (%), relative to GCG (cAMP HTRF, from EC50) (glucagon receptor): 12.2%
In vitro activity relative to native polypeptide (%), relative to GLP-1 (cAMP HTRF, from EC50) [2]: 67.7%

H[Aib]QGTFTSDLSRALEK(R2)IAARLFIEWLIEGGPSSGAPPPS-NH2 (reading uncertain) [triple agonist peptide of SEQ ID NO: 14, chemically modified with R2 side chain]
In vitro activity relative to native polypeptide (%), relative to GIP (cAMP HTRF, from EC50) [1]: 3.38%
In vitro activity relative to native polypeptide (%), relative to GCG (cAMP HTRF, from EC50) (glucagon receptor): 0.49%
In vitro activity relative to native polypeptide (%), relative to GLP-1 (cAMP HTRF, from EC50) [2]: 57%

H[Aib]QGTFTSDLSRAMEK(R1)IAVRLFIEWLIEGGPSSGAPPPS-NH2 (reading uncertain) [triple agonist peptide of SEQ ID NO: 11, chemically modified with R1 side chain]
In vitro activity relative to native polypeptide (%), relative to GIP (cAMP HTRF, from EC50) [1]: 2.53%
In vitro activity relative to native polypeptide (%), relative to GCG (cAMP HTRF, from EC50) (glucagon receptor): 3.89%
In vitro activity relative to native polypeptide (%), relative to GLP-1 (cAMP HTRF, from EC50) [2]: 191%

H[Aib]QGTFTSDLSLAQEKEAVRLFIEWLREGGPSSGAPPPS (ends and bridges not checked) [triple agonist peptide of SEQ ID NO: 8]
In vitro activity relative to native polypeptide (%), relative to GIP (cAMP HTRF, from EC50) [1]: 2.02%
In vitro activity relative to native polypeptide (%), relative to GCG (cAMP HTRF, from EC50) (glucagon receptor): 1.21%
In vitro activity relative to native polypeptide (%), relative to GLP-1 (cAMP HTRF, from EC50) [2]: 123%

H[Aib]QGTFTSDLSLEQEKIAVRLFIEWLREGGPSSGAPPPS (ends and bridges not checked) [triple agonist peptide of SEQ ID NO: 9]
In vitro activity relative to native polypeptide (%), relative to GIP (cAMP HTRF, from EC50) [1]: 95.8%
In vitro activity relative to native polypeptide (%), relative to GCG (cAMP HTRF, from EC50) (glucagon receptor): 20.1%
In vitro activity relative to native polypeptide (%), relative to GLP-1 (cAMP HTRF, from EC50) [2]: 136%
